Reference: paper PMC4221783

Columns and labels:
[1] = target: Vangl2 lacking the Prickle-binding domain (UniProt Q91ZD4); test: co-IP
[2] = target: Vangl2 lacking the PDZ-binding motif at the C-terminal end; test: co-IP
Vangl2 lacking the PDZ-binding motif at the C-terminal end, sequence (P84889 whole entry): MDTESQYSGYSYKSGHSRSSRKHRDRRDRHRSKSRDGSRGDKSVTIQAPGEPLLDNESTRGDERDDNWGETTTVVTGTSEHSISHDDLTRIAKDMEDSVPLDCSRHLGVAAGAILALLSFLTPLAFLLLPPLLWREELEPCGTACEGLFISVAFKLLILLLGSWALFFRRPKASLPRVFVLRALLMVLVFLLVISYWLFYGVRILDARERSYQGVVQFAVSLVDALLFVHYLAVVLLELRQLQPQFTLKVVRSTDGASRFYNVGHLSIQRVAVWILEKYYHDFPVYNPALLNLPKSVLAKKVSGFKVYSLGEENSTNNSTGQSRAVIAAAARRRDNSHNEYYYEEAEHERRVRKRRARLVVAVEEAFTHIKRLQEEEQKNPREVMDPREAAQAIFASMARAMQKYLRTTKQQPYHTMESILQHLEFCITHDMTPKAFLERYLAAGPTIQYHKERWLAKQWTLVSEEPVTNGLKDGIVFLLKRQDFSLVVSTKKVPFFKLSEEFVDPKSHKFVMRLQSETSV

Vangl2 lacking the Prickle-binding domain, sequence (Q91ZD4 whole entry, the tested form may be a part): as the sequence (P84889 whole entry) above

**Q.** With “E-cadherin (from UniProt P09803 157-884) (natural protein)” as the substance, how does the association in co-IP, percent of WT [1] read?
**A.** 28.4%

**Q.** What about the association in co-IP, percent of WT [2] of the same substance?
**A.** 87.1%
